Data: patent US20200317769A1 (published 2020)
Where a chain is given by its changes, count along the chain named. In names and notes the source's numbering stands. Read-outs that look alike come from different tables or passages of the source.

Columns and labels:
[1] = molecular target: T1, soluble cynomolgus monkey TNF-alpha (cynomolgus monkey, UniProt P79337 77-233); assay: competition ELISA: VHH mixed with cynomolgus TNF-alpha, binding to coated etanercept (TNFR2-Fc)
T1 construct: also called Cynomolgus TNF; cyno-TNF-alpha
T1 sequence (P79337 77-233 limits assumed): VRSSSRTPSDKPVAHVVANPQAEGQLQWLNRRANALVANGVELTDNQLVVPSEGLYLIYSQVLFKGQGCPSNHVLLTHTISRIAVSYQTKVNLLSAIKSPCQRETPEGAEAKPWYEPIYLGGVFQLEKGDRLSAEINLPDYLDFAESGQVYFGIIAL
Experimental: (§1) Variable domains were diluted and mixed with either human or cynomolgus monkey TNF-alpha (1.25 ng/ml) to allow binding before adding to the ELISA plates.

[2] = molecular target: T2, soluble human TNF-alpha (human, UniProt P01375 77-233); assay: competition ELISA: VHH mixed with human TNF-alpha, binding to coated etanercept (TNFR2-Fc)
T2 construct: Recombinant, bought (Invitrogen PHC3015 in some assays); also called hs-TNF-alpha; h-TNF-alpha
T2 sequence (P01375 77-233 limits assumed): as the sequence (P79337 77-233 limits assumed) above, with V37L, T44R, N72T, L138R counted along it
Experimental: as §1

[3] = molecular target: T1, soluble cynomolgus monkey TNF-alpha; assay: cell-based or functional assay
[4] = molecular target: T2, soluble human TNF-alpha; assay: cell-based or functional assay
[5] = molecular target: T3, non-cleavable transmembrane form of human TNF-alpha on CHO cells (mTNF-alpha-CHO) (human, UniProt P01375 1-233); assay: cell-based or functional assay
T3 sequence (P01375 whole entry): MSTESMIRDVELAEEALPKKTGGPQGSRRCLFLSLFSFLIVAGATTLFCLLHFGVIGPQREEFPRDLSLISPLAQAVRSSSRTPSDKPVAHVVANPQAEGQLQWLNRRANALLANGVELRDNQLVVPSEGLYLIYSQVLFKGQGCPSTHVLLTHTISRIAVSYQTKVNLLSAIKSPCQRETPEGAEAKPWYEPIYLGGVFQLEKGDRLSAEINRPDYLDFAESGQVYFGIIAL

[6] = molecular target: T2, soluble human TNF-alpha; assay: cell-based or functional assay; remark: listed apart in the source
[7] = molecular target: T1, soluble cynomolgus monkey TNF-alpha; assay: cell-based or functional assay; remark: listed apart in the source
[8] = molecular target: T2, soluble human TNF-alpha; assay: cell-based or functional assay; remark: listed apart in the source
[9] = molecular target: T3, non-cleavable transmembrane form of …; assay: cell-based or functional assay; remark: listed apart in the source
[10] = molecular target: T3, non-cleavable transmembrane form of …; assay: cell-based or functional assay; remark: listed apart in the source
[11] = molecular target: T2, soluble human TNF-alpha; assay: competition ELISA: VHH mixed with h-TNF-alpha, binding to coated etanercept
[12] = molecular target: T2, soluble human TNF-alpha; assay: competition ELISA: VHH mixed with TNF-alpha 2.5 ng/ml, binding to coated hTNFR1
Experimental: Plate was washed in PBST using a plate washer and blocked for 1 hour in 200 ul 1% BSA per well. A threefold dilution series beginning at 30 nM for each antibody was incubated with 2.5 ng/ml TNF-alpha for 1 hour, 50 ul/well of which was then added to the washed plate and incubated for 5 hours. The plate was washed and incubated with 50 ul/well of a 1/1000 dilution of biotinylated rabbit alpha-hTNF (Peprotech P31AB7) in 1% BSA and incubated overnight at 4 degrees C. The plate was washed and incubated with 50 ul/well of a 1/1000 dilution of mAvidin HRP in 1% BSA for 1 hour before a final wash and incubation with 100 ul/well TMB substrate. The reaction was stopped after 20 minutes with 50 ul/well 0.5 M H2504 and absorbance was read at 450 nm. EC50 values were calculated from ELISA data in GraphPad Prism.

[13] = molecular target: T2, soluble human TNF-alpha; assay: cell-based or functional assay; remark: listed apart in the source

B1: Q65C7 (VHH, not shown: small tags and cut ends)
VHH: EVQLVESGGGLVQPGRSLRLSCTASGFDFSSHWMYWVRQAPGKGLEWVSEINTNGLITKYADFVKGRFTVSRDNAANTLYLEITRLEPEDTALYYCARNQKGLNKGQGTQVTVSS
notes: Family 1; purified from E. coli
EC50 [1]: 0.32 nM | EC50 [2]: 0.35 nM | Inhibition of cynomolgus TNF-induced L929 cell cytotoxicity EC50 [3]: 0.03 nM | Inhibition of human TNF-induced L929 cell cytotoxicity EC50 [4]: 0.15 nM | Inhibition of mTNF-alpha-induced HEK-NF-kB SEAP Reporter (EC50 = nM) [5]: 14.1 nM

B2: Q65D3 (VHH, not shown: small tags and cut ends)
VHH: B1 VHH with R16G, T23V, F63S, V64T, T78M, Y80N, I83M, R85S, Q100E, K101R
notes: as for B1
EC50 [1]: 0.45 nM | EC50, HEK-293 NF-kB/SEAP reporter cells, human soluble TNF-alpha [6]: ~0.6 nM | EC50 [2]: 0.33 nM | Inhibition of cynomolgus TNF-induced L929 cell cytotoxicity EC50 [3]: 0.1 nM | Inhibition of human TNF-induced L929 cell cytotoxicity EC50 [4]: 0.15 nM | Inhibition of mTNF-alpha-induced HEK-NF-kB SEAP Reporter (EC50 = nM) [5]: 16 nM

B3: Q65D1 (VHH, not shown: small tags and cut ends)
VHH: B1 VHH with R16G, S30D, S31N, Y35C, E82Q, E87K
notes: as for B1
EC50 [1]: 0.32 nM | EC50 [2]: 0.37 nM | Inhibition of cynomolgus TNF-induced L929 cell cytotoxicity EC50 [3]: 0.06 nM | Inhibition of human TNF-induced L929 cell cytotoxicity EC50 [4]: 0.1 nM | Inhibition of mTNF-alpha-induced HEK-NF-kB SEAP Reporter (EC50 = nM) [5]: 15.3 nM

B4: Q62F2 (VHH, not shown: small tags and cut ends)
VHH: B1 VHH with E1Q, R16G, T23A, S30N, K59N, A61V, F63S, I83M, R85S, E87K
notes: as for B1
EC50 [1]: 1.3 nM | EC50 [2]: 0.7 nM | Inhibition of cynomolgus TNF-induced L929 cell cytotoxicity EC50 [7]: 0.8 nM | Inhibition of human TNF-induced L929 cell cytotoxicity EC50 [8]: 1 nM | Inhibition of mTNF-alpha-induced HEK-NF-kB SEAP Reporter (EC50 = nM) [9]: 34 nM

B5: Q62E10 (VHH, not shown: small tags and cut ends)
VHH: QVQLVESGGGLVQPGGSLRLSCTTSGLDFGIHWMYWFRQAPGKELEWVAEINTNALITKYADSVKGRFTISRDNAKNTLFLQMNDLKSEDTAVYYCSNTQNGAAKGQGVQVTVSS
notes: Family 2; purified from E. coli
EC50 [1]: 1.2 nM | EC50 [2]: 0.8 nM | Inhibition of cynomolgus TNF-induced L929 cell cytotoxicity EC50 [7]: < 0.1 nM | Inhibition of human TNF-induced L929 cell cytotoxicity EC50 [8]: 0.2 nM | Inhibition of mTNF-alpha-induced HEK-NF-kB SEAP Reporter (EC50 = nM) [9]: 80 nM

B6: Q65A3 (VHH, not shown: small tags and cut ends)
VHH: B5 VHH with Q1E, L20P
notes: as for B5
EC50 [1]: 1.1 nM | EC50 [2]: 1.3 nM | Inhibition of cynomolgus TNF-induced L929 cell cytotoxicity EC50 [3]: 0.04 nM | Inhibition of human TNF-induced L929 cell cytotoxicity EC50 [4]: 0.15 nM | Inhibition of mTNF-alpha-induced HEK-NF-kB SEAP Reporter (EC50 = nM) [5]: 23.9 nM

B7: ID22F (VHH)
chain: EVQLVESGGGLVQPGGSLKLSCAASGFDFSSHWMYWVRQAPGKELEWLSEINTNGLITKYGDSVKGRFTVSRNNAANKMYLELTRLEPEDTALYYCARNQKGLNKGQGTQVTVSSGGGGSGGGGSGGGGSGGGGSGGGGSGGGGSEVQLVESGGGLVQPGGSLKLSCAASGFDFSSHWMYWVRQAPGKELEWLSEINTNGLITKYGDSVKGRFTVSRNNAANKMYLELTRLEPEDTALYYCARNQKGLNKGQGTQVTVSS
potency relative to the monomer, soluble TNF-induced HEK293-NF-kB-SEAP reporter assay [6]: ~10 fold

B8: Q62F11 (VHH, not shown: small tags and cut ends)
VHH: QVQLVESGGGLVQPGGSLRLSCAASGFSFSDYVMGWFRQAPGKEREFVGFIRWDGLVTRYADAVKGRFTISRDNARNTLSLQTIGLLAEDTAVYYCAASGGGSGPVNAGSYEYWGQGTQVTVSS
notes: Neither Family 1 nor Family 2; purified from E. coli
EC50 [1]: 1.4 nM | EC50 [2]: 2.3 nM | Inhibition of cynomolgus TNF-induced L929 cell cytotoxicity EC50 [7]: 1.5 nM | Inhibition of human TNF-induced L929 cell cytotoxicity EC50 [8]: 6 nM | Inhibition of mTNF-alpha-induced HEK-NF-kB SEAP Reporter (EC50 = nM) [9]: 40 nM

B9: Q65E12 (VHH, not shown: small tags and cut ends)
VHH: EVQLVESGGGLVQPGGSLRLSCSASGFDFSIHWMYWVRQAPGKELEWVAEINTNGLITLYADSVKGRFTASRDNAKNALFLQMNDLKFEDTAVYYCAKSRNGAAGGQGTQVTVSS
notes: as for B5
EC50 [1]: 65 nM | EC50 [2]: 47 nM | Inhibition of cynomolgus TNF-induced L929 cell cytotoxicity EC50 [3]: 4 nM | Inhibition of human TNF-induced L929 cell cytotoxicity EC50 [4]: 4 nM | Inhibition of mTNF-alpha-induced HEK-NF-kB SEAP Reporter (EC50 = nM) [5]: 174 nM

B10: Q65F6 (VHH, not shown: small tags and cut ends)
VHH: B9 VHH with S23T, S30G, A61S, K65R, K76N, G105K
notes: as for B5
EC50 [1]: 24 nM | EC50 [2]: 13 nM | Inhibition of cynomolgus TNF-induced L929 cell cytotoxicity EC50 [3]: 1 nM | Inhibition of human TNF-induced L929 cell cytotoxicity EC50 [4]: 1.5 nM | Inhibition of mTNF-alpha-induced HEK-NF-kB SEAP Reporter (EC50 = nM) [5]: 110 nM

B11: Q62F10 (VHH, not shown: small tags and cut ends)
VHH: EVQLVESGGGLVQPGGSLRLSCVASGFDFNIHWMYWVRQAPGKELEWVAEINTNGLITVYPDSVKGRFTISRDNAKNTLFLQMNNLKFEDTAVYYCTNTQNGKTKGQGTQVTVSS
notes: as for B5
EC50 [1]: 108 nM | EC50 [2]: 30 nM | Inhibition of cynomolgus TNF-induced L929 cell cytotoxicity EC50 [7]: 1.3 nM | Inhibition of human TNF-induced L929 cell cytotoxicity EC50 [8]: 2 nM

B12: Q65B1 (VHH, not shown: small tags and cut ends)
VHH: EVQLVESGGGLVQPGGSLKLSCAASGFDFSSHWMYWVRQAPGKELEWLSEINTNGLITKYGDSVKGRFTVSRNNAANKMYLELTRLEPEDTALYYCARNQKGLNKGQGTQVTVSS
notes: Family 1; purified from E. coli; parent of the ID series
EC50 [1]: 0.45 nM | mTNF-alpha neutralisation EC50 (nM), NF-kB/SEAP HEK-293 cellular reporter assay [10]: 8.72 nM | EC50, HEK-293 NF-kB/SEAP reporter cells, human soluble TNF-alpha [6]: ~0.2 nM | EC50 [2]: 0.29 nM | Inhibition of cynomolgus TNF-induced L929 cell cytotoxicity EC50 [3]: 0.01 nM | Inhibition of human TNF-induced L929 cell cytotoxicity EC50 [4]: 0.04 nM | Inhibition of mTNF-alpha-induced HEK-NF-kB SEAP Reporter (EC50 = nM) [5]: 10.9 nM

B13: ID34F (VHH)
VHH: B12 VHH with K59H, K101H
mTNF-alpha neutralisation EC50 (nM), NF-kB/SEAP HEK-293 cellular reporter assay [10]: 4.71 nM

B14: ID15F-EV (VHH)
VHH: B12 VHH with K101H, K105H
notes: Q65B1 monomer mutant with His-tag; not shown: C-terminal His-tag (c-myc-6His or Flag-6His)
binding result [11]: binds

B15: ID13F-EV (VHH)
VHH: B12 VHH with K101H
notes: as for B14
binding result [11]: binds

B16: ID38F (VHH)
VHH: B12 VHH with E1D, K59H, K101H
notes: Q65B1 with N-terminal DVQLV, K59H and K101H; no His-tag; also called ID38F (S. cerevisiae-produced)
mTNF-alpha neutralisation EC50 (nM), NF-kB/SEAP HEK-293 cellular reporter assay [10]: 5.16 nM | EC50 [12]: 0.61 nM | EC50 (nM), neutralisation of human soluble TNF-alpha-induced cytotoxicity in L929 cells [13]: 0.127 nM

B17: ID8F-EV (VHH, not shown: small tags and cut ends)
VHH: B12 VHH with K59H
mTNF-alpha neutralisation EC50 (nM), NF-kB/SEAP HEK-293 cellular reporter assay [10]: 7.69 nM

B18: ID9F-EV (VHH)
VHH: B12 VHH with K65H
notes: as for B14
binding result [11]: binds
